{"source": "paper PMC11143254", "about": "“Cryo-EM structure of cadmium-bound human ABCB6” (Communications Biology, 2024)", "proteins": {"B1": {"name": "human ABCB6 core region lacking TMD0 (hABCB6^core) (domain or fragment, UniProt Q9NP58 206-842, looked up)", "chain": "APGLRPQSYTLQVHEEDQDVERSQVRSAAQQSTWRDFGRKLRLLSGYLWPRGSPALQLVVLICLGLMGLERALNVLVPIFYRNIVNLLTEKAPWNSLAWTVTSYVFLKFLQGGGTGSTGFVSNLRTFLWIRVQQFTSRRVELLIFSHLHELSLRWHLGRRTGEVLRIADRGTSSVTGLLSYLVFNVIPTLADIIIGIIYFSMFFNAWFGLIVFLCMSLYLTLTIVVTEWRTKFRRAMNTQENATRARAVDSLLNFETVKYYNAESYEVERYREAIIKYQGLEWKSSASLVLLNQTQNLVIGLGLLAGSLLCAYFVTEQKLQVGDYVLFGTYIIQLYMPLNWFGTYYRMIQTNFIDMENMFDLLKEETEVKDLPGAGPLRFQKGRIEFENVHFSYADGRETLQDVSFTVMPGQTLALVGPSGAGKSTILRLLFRFYDISSGCIRIDGQDISQVTQASLRSHIGVVPQDTVLFNDTIADNIRYGRVTAGNDEVEAAAQAAGIHDAIMAFPEGYRTQVGERGLKLSGGEKQRVAIARTILKAPGIILLDEATSALDTSNERAIQASLAKVCANRTTIVVAHRLSTVVNADQILVIKDGCIVERGRHEALLSRGGVYADMWQLQQGQEETSEDTKPQTMER", "notes": "human ABCB6, core region lacking the N-terminal TMD0, residues 206-842, codon-optimized synthetic gene; Homodimeric half-transporter; The C-terminal tag (thrombin site, eGFP, 10xHis) was removed by thrombin; residues of the cleavage site may remain; Modelled residues exclude the extreme N-terminus and residues 827-842; not shown: eGFP, C-terminal, cleaved; 10xHis, C-terminal, cleaved"}}, "molecular_target": "the molecule itself", "assay": "cryo-EM structure; nanodisc-reconstituted hABCB6^core (0.5 mg/mL) incubated with 800 uM CdCl2 and 1 mM GSH (or PC2) at 4 °C for 30 min; C2 symmetry; inward-facing homodimer", "data": [{"protein": "B1", "values": [{"measurement": "stoichiometry N", "value": 2}]}]}
